The target in assay [1] is T1, recombinant human CTLA-4-Fc (R&D Systems, #7268-CT) (human, UniProt P16410 36-161).
T1 construct: Bought protein; also called rhCTLA-4-Fc; CTLA-4 antigen; not shown: Fc part of the bought fusion protein
T1 sequence: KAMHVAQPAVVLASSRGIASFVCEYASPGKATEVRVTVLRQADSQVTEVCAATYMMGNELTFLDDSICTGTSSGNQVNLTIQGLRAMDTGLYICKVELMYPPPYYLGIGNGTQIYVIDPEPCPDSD
The assay is described as follows: surface plasmon resonance, antibody captured on CM5 chip, rhCTLA-4-Fc in solution. An excerpt: To detect nonspecific interactions of the CTLA-4 antigen, antibody capture was only performed in flow cell 2, whereas in flow cell 1 only the capturing antibody was immobilized. After capture of the anti-CTLA-4 antibodies, the CTLA-4 antigens were run through both flow cells in different amounts. Specifically, recombinant human CTLA-4-Fc (R&D Systems, #7268-CT), recombinant human CTLA-4 (Sino Biological, #11159-H08H), recombinant cynomolgus CTLA-4-Fc (Sino Biological, #90213-C02H), and recombinant cynomolgus CTLA-4 (Sino Biological, #90213-C08H) were run at 100 nM, 25 nM, and 6.25 nM; and recombinant mouse CTLA-4-Fc (R&D, # 434-CT), recombinant rat CTLA-4-Fc (Sino Biological, #81069-RO2H), and recombinant rat CTLA-4 (Sino Biological, #81069-R08H) were run at 400 nM, 100 nM, and 25 nM. A blank curve (running buffer only) was also included in each run. Association was run for 90 seconds and dissociation for 600 seconds with a flow rate of 10 μl/min. After each run a regeneration step was performed with 10 mM Glycine pH 2.0 (GE Healthcare, BR-1003-55) for 60 seconds with 30 μl/min. Binding curves were evaluated using BIAcore® T200 evaluation software version 2.0.1 applying a Langmuir 1:1 model with global fit of Rmax. From these values the affinities (KD) of AGEN1884 and the reference anti-CTLA-4 antibody for various antigens were calculated and shown in FIG. 1A. The recombinant monomeric cynomolgus CTLA-4, mouse CTLA-4-Fc, and monomeric rat CTLA-4 used in this study failed quality control assessment. […] The surface plasmon resonance analysis was later repeated twice using recombinant mouse CTLA-4-Fc (Sino Biological, #81069-R02H) that passed a quality control assessment at 360 nM, 120 nM, 40 nM, and 13.3 nM for AGEN1884w.
The affinity of the 19 anti-CTLA-4 antibodies described above was analyzed by surface plasmon resonance in an assay similar to the one described in Section 6.1.1. The CTLA-4 antigen tested was recombinant human CTLA-4-Fc (R&D Systems, #7268-CT). The anti-CTLA-4 antibodies (6 μg/ml in running buffer) were captured to the chip surface of a CMS sensor chip.
A general note: Surface plasmon resonance follows binding to a sensor surface in real time, without labels.

Assay [2] addresses T2, rhPD-1-Fc (R&D Systems, #1086-PD) (human, UniProt Q15116 25-167).
T2 construct: Bought protein; also called recombinant human PD-1; not shown: Fc part of the bought fusion protein
The assay is described as follows: suspension array (Luminex) selectivity assay as in Section 6.1.3.

In assay [3] the target is T3, rhCD28-Fc (R&D, #342-CD-200) (human, UniProt P10747 19-152).
T3 construct: Bought protein; also called recombinant human CD28; not shown: Fc part of the bought fusion protein
The description is as above.

In assay [4] the target is T4, rhICOS-Fc (R&D, #169-CS-050) (human, UniProt Q9Y6W8 21-141).
T4 construct: Bought protein; also called recombinant human ICOS; not shown: Fc part of the bought fusion protein
T4 sequence: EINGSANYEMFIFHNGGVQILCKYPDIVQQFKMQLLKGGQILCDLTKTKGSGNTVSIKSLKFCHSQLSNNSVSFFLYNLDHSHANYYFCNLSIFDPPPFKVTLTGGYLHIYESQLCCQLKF
The description is as above.

In assay [5] the target is T5, recombinant cynomolgus CTLA-4-Fc (Sino Biological, #90213-C02H) (cynomolgus, UniProt P16410 36-161 (human entry)).
T5 construct: Bought protein; also called recombinant cynomolgus (rc) CTLA-4; not shown: Fc part of the bought fusion protein
The assay is described as above.

Assay [6] concerns the target T6, rhBTLA-Fc (Sino Biological, #11896-H02H) (human, UniProt Q7Z6A9 31-157).
T6 construct: Bought protein; also called recombinant human BTLA; not shown: Fc part of the bought fusion protein
T6 sequence: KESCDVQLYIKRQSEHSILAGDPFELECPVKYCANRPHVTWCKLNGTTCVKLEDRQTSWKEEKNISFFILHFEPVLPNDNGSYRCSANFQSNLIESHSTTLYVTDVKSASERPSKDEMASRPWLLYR
The assay is described as above.

In assay [7] the target is T7, human FcγRIIB expressed on CHO cells (human, UniProt P31994 43-310).
T7 construct: whole, on cells; also called rCHO-huFcγRIIB+
T7 sequence (looked up): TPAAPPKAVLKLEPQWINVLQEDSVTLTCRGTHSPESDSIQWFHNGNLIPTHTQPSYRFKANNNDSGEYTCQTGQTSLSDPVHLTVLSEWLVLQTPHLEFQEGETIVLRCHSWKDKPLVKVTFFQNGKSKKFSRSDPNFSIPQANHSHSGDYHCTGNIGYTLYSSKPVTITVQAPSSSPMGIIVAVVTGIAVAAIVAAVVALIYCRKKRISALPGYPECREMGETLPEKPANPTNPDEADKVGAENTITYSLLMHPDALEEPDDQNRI
The assay is described as follows: flow cytometry on CHO cells expressing human FcγRIIB. The protocol:
(§1) The binding of anti-CTLA-4 antibodies to human FcγRIIA, FcγRIIB, and FcγRIIIA expressed on the surface of CHO cells was measured by flow cytometry. Briefly, CHO cells were transfected with cDNA encoding for human FcγRIIA^H131, FcγRIIB, or FcγRIIIA^V158, generating the following CHO cell lines: rCHO-huFcγRIIA⁺, rCHO-huFcγRIIB⁺, and rCHO-huFcγRIIIA⁺. Binding of a dose titration of antibodies ranging from 0.0056-1000 μg/ml was performed and the primary antibodies were detected with an anti-human F(ab′) secondary antibody conjugated with Phycoerythrin (PE) (Jackson Immune Research). The samples were tested by flow cytometry and the PE mean fluorescence intensity (MFI) values were analyzed and used to generate binding curves. The antibodies tested were AGEN1884w, AGEN2041w, a reference anti-CTLA-4 IgG₁ antibody, and an IgG₁ isotype control antibody. AGEN1884w produced in two different growth media was used in this study: the growth media CD FortiCHO™ from Life Technologies Inc./Thermo (AGEN1884w-FortiCHO) and the growth media PowerCHO™ 2 from Lonza (AGEN1884w-PowerCHO). The reference anti-CTLA-4 IgG₁ antibody contains a different IgG₁ allotype from the one in AGEN1884w. The IgG₁ isotype control antibody was only tested at 1000 μg/ml.
A general note: In flow cytometry, cells or beads pass a laser one at a time.

Assay [8] deals with T8, human FcγRIIIA^V158 expressed on cells (human, UniProt P08637 17-254).
T8 construct: whole, on cells; also called rCHO-huFcγRIIIA+
The assay is described as follows: flow cytometry on CHO cells expressing human FcγRIIIA^V158. The protocol: as §1

Residue numbers refer to the chain shown, from its start.

T2 sequence (Q15116 25-167 limits assumed): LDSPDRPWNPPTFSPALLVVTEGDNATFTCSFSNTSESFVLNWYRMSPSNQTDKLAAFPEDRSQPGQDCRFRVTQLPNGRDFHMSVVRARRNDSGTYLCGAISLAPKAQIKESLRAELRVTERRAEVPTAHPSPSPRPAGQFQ
T8 sequence (P08637 17-254 F176V limits assumed): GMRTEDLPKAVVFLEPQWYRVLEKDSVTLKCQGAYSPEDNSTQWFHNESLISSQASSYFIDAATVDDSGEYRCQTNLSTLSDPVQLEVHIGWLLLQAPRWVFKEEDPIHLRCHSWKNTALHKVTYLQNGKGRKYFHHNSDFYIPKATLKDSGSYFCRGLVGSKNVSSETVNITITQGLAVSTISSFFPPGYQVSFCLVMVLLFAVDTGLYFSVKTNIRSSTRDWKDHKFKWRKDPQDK
T3 sequence (P10747 19-152 limits assumed): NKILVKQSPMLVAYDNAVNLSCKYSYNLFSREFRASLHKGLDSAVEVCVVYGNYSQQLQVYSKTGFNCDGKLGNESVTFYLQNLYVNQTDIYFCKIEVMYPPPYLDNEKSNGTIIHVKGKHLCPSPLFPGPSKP
T5 sequence (P16410 other isoform, or with tags, fused parts or gaps C02H C02H limits assumed): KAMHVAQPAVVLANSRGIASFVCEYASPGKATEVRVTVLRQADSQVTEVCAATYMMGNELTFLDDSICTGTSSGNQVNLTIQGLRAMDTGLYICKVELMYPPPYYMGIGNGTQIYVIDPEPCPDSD

B1: AGEN1896 (antibody, V domains shown)
VH: EVQLLESGGGLVKPGGSLRLSCAASGFTFSSYSMNWVRQAPGKGLEWVSSISSSSSYIYYADSVKGRFTISRDNAKNSLYLQMNSLRAEDTAVYYCARVGLMGPFDIWGQGTMVTVSS
VL: EIVLTQSPATLSFSPGERATLSCRASQSVSSYLAWYQQKPGQAPRLLIYGASSRATGIPDRFSGSGSGTDFTFTISRLEPEDFAVYYCQQYGSSPFTFGPGTKVDIK
Consider B1, for which the binding result in assay [1] is given as “binds”.

B2: AGEN1898 (antibody, V domains shown)
VH: B1 VH with K13Q, S33A, N35S, E46V, D106N
VL: B1 VL with F13L, R45S, G50A, A51T, G66V, F73L, S93T, F96W, P100Q, D105E
For B2, the binding result in assay [1] is given as “binds”.

B3: AGEN1887 (antibody, V domains shown)
VH: B1 VH with K13Q, S33A, N35S, E46V
VL: B1 VL with A9G, F13L, S31R, A34G, S53T, F73L, S76T, F96W, P100Q, D105E
Take B3: the binding result in assay [1] is recorded as “binds”.

B4: AGEN1897 (antibody, V domains shown)
VH: B1 VH with K13Q, S33A, N35S, E46V, D106N
VL: B1 VL with A9G, F13L, S31R, A34G, S53T, F73L, S76T, F96W, P100Q, D105E
Consider B4, for which the binding result in assay [1] was “binds”.

B5: AGEN1901 (antibody, V domains shown)
VH: B1 VH with L5V, K13Q, R19T
VL: B1 VL with F13L, S30G, S31T, Q38H, P40V, S53R, F73L, F96W, P100Q, D105E
B5: the binding result in assay [1] was “binds”.

B6: AGEN1890 (antibody, V domains shown)
VH: B1 VH with L5V, S78T
VL: B1 VL
As for B6, in assay [1], the binding result was “binds”.

B7: AGEN1892 (antibody, V domains shown)
VH: B1 VH with L5V, S78T
VL: B1 VL with F13L, S53N, D60A, F73L, R77S
As for B7, the binding result in assay [1] is on record as “binds”.

B8: AGEN1891 (antibody, V domains shown)
VH: B1 VH with L5V, S78T
VL: B1 VL with F13V, G50A, S53T, G66A, F73L, F96W, P100Q, D105E
As to B8, the binding result in assay [1] is listed as “binds”.

B9: AGEN1899 (antibody, V domains shown)
VH: B1 VH with K13Q, S33A, N35S, E46V, D106N
VL: B1 VL
For B9, the binding result in assay [1] is listed as “binds”.

B10: AGEN1902 (antibody, V domains shown)
VH: B1 VH with L5V, K13Q, R19T
VL: B1 VL
As for B10, in assay [1], the binding result is recorded as “binds”.

B11: AGEN1889 (antibody, V domains shown)
VH: B1 VH with L5V, S78T
VL: B1 VL with F13L, S30G, S31T, Q38H, P40V, S53R, F73L, F96W, P100Q, D105E
As to B11, in assay [1], the binding result is given as “binds”.

B12: AGEN1888 (antibody, V domains shown)
VH: B1 VH with K13Q, S33A, N35S, E46V
VL: B1 VL
Take B12: in assay [1], the binding result is “binds”.

B13: AGEN1893 (antibody, V domains shown)
VH: B1 VH
VL: B1 VL with F13L, S30G, S31T, Q38H, P40V, S53R, F73L, F96W, P100Q, D105E
In the case of B13, the binding result in assay [1] is recorded as “binds”.

B14: AGEN1895 (antibody, V domains shown)
VH: B1 VH
VL: B1 VL with F13L, R45S, G50A, A51T, G66V, F73L, S93T, F96W, P100Q, D105E
On to B14, for which the binding result in assay [1] is “binds”.

B15: AGEN1886 (antibody, V domains shown)
VH: B1 VH with L5V
VL: B1 VL
With B15, the binding result in assay [1] is on record as “binds”.

B16: AGEN1885 (antibody, V domains shown)
VH: B1 VH with L5V
VL: B1 VL with F13L, R45S, G50A, A51T, G66V, F73L, S93T, F96W, P100Q, D105E
Turning to B16, the binding result in assay [1] was “binds”.

B17: AGEN1900 (antibody, V domains shown)
VH: B1 VH with K13Q, S33A, N35S, E46V, D106N
VL: B1 VL with F13L, S53N, D60A, F73L, R77S
In the case of B17, in assay [1], the binding result was “binds”.

B18: AGEN2041w (antibody, human IgG2, kappa)
heavy: EVQLVESGGGLVKPGGSLRLSCAASGFTFSSYSMNWVRQAPGKGLEWVSSISSSSSYIYYADSVKGRFTISRDNAKNSLYLQMNSLRAEDTAVYYCARVGLMGPFDIWGQGTMVTVSSASTKGPSVFPLAPCSRSTSESTAALGCLVKDYFPEPVTVSWNSGALTSGVHTFPAVLQSSGLYSLSSVVTVPSSNFGTQTYTCNVDHKPSNTKVDKTVERKCCVECPPCPAPPVAGPSVFLFPPKPKDTLMISRTPEVTCVVVDVSHEDPEVQFNWYVDGVEVHNAKTKPREEQFNSTFRVVSVLTVVHQDWLNGKEYKCKVSNKGLPAPIEKTISKTKGQPREPQVYTLPPSREEMTKNQVSLTCLVKGFYPSDIAVEWESNGQPENNYKTTPPMLDSDGSFFLYSKLTVDKSRWQQGNVFSCSVMHEALHNHYTQKSLSLSPG
light: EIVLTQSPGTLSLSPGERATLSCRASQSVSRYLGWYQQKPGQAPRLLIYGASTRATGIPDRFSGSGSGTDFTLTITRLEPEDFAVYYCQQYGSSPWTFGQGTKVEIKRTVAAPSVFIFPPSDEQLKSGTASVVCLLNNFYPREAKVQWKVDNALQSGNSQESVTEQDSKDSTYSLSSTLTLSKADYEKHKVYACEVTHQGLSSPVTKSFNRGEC
notes: Human IgG2 version of AGEN1884w
Regarding B18, the binding result in assay [2] was “no binding”; in assay [3], “no binding”; in assay [4], “no binding”; in assay [5], “binds”; in assay [6], “no binding”; in assay [7] it was “binds”. In assay [8], the binding result is “binds”.

The record behind these values is US20220267443A1 (AGENUS, published 2022).
